The Kd is the free concentration of one partner at which half of the binding sites on the other are occupied at equilibrium, for simple one-to-one binding.

In assay [1] the target is RGA5-HMA (labelled, MST) (rice) (UniProt F7J0N2). Nature of the assay: MST; […]; 20 mM PBS, 150 mM NaCl, 0.05% Tween-20, pH 7.4; […].
Assay [2] addresses RGA5-HMA5 (recombinant, MST and HDX-MS) (rice) (UniProt F7J0N2). The assay is described as above.

In assay [1], “AVR-Pia (recombinant, MST) (from UniProt B9WZW9) (natural protein; other documents disagree on this pair)” returned a Kd of 35 µM.

In the case of “AVR-PikD (recombinant, MST and HDX-MS) (natural protein)”, the dissociation constant (Kd) in assay [2] was found to be 12 µM.

(Values after PMC10847126.)
